From the DeepSol protein solubility set come the findings set out here.

The data set in a line: soluble on expression in E. coli; label from the status in PepcDB or PDB records.
For “VSAPTKPHSPTFKPEPHSAANEPKHPAARPKHVALQQLTGAQAVIRSLEELGVDVIFGIPGGAVLPVYDPLFDSKKLRHVLVRHEQGAGHAASGYAHVTGRVGVCMATSGPGATNLVTPLADAQMDSIPVVAITGQVGRGLIGTDAFQEADISGITMPITKHNFLVRSGDDIPRVLAEAFHIAASGRPGAVLVDIPKDVLQGQCTFSWPPRMELPGYKPNTKPHSRQVREAAKLIAAARKPVLYVGGGVIRGEATEQLRELAELTGIPVVTTLMARGAFPDSHRQNLGMPGMHGTVAAVAALQRSDLLIALGTRFDDRVTGKLDSFAPEAKVIHADIDPAEIGKNRHADVPIVGDVKAVITELIAMLRHHHIPGTIEMADWWAYLNGVRKTYPLSYGPQSDGSLSPEYVIEKLGEIAGPDAVFVAGVGQHQMWAAQFIRYEKPRSWLNSGGLGTMGFAIPAAMGAKIALPGTEVWAIDGDGCFQMTNQELATCAVEGIPVKVALINNGNLGMVRQWQSLFYAERYSQTDLATHSHRIPDFVKLAEALGCVGLRCEREEDVVDVINQARAINDCPVVIDFIVGADAQVWPMVAAGTSNDEIQAARGIRPLFDDITEGHA”, the “soluble on expression in E. coli” value is listed as “not soluble”.

With “MSRIHTLTMPKWGLSMTEGRVDAWLKEEGAHIEKGDEVLDVETDKISSSVEAPFSGVLRRKVAREDETLAVGALLGVVVEGEASDEEIDALVQRFQAEFVPADEDAGDSGPAPRKVELDGRLLRYFDRGEGDPALLLIHGFGGDLNNWLFNHEALAAERRVIALDLPGHGESGKALVRGDLDELSGSVLALLDHLDLEQVHLAGHSMGGAVALNCARLAPQRVLSLSLIGSAGLGEEINGDYLRGFVEAANRNALKPQLVQLFSDPALVTRQMLEDMLRYKRLEGVDAALRQLLDNLFADGRQRNDLRAVANEGRQPVLAIWGSDDAIIPARHAEGLPAQVEIIPGQAHMVQMEAAEQVNRLLLDFLRQH”, the “soluble on expression in E. coli” value was “not soluble”.

As for “MAHHHHHHMSQLSASPREEPVGIPELFLQYLKAKDLKDQLAIVRAHPVLFTDDVVAALKDARAQMNETFVEVKETCRVIDAVSGSLQYTGTSVQLQQTVAKELLDEDAILKKFATSLAGLLRARETAGPAAPSTISSLATASRVSSSLGAGKSHSPGAWFTQPSLVFSVLTFLSAEEIFITAENVCRAWQTWLFLPDMSRFFWVGCVQREFPEQLQVLLQTAGDDLYQSDWRSLAMLCVTEGEQAAEAEEAEEAGDGGAVRGVVPFL”, the “soluble on expression in E. coli” value is “not soluble”.

As for “MKKLATLTALAGALTMAVATAAQAESKSSSTDNTATPCVGDKCVKTKAAEGKCGEGKCGADKAKSAEGKCGEGKCGADKAKSAEGKCGEGKCGSK”, the “soluble on expression in E. coli” value is listed as “not soluble”.

“MAHHHHHHMESGKNAHRLNRIFRKPKTMVAPRAWRPAADGEGERQQPFSGVSLQRINAMISELSEEERTRALAQQDPPTVVQEELAKRAARFGLTIERADAGNNEKTASSEITPEVQAVFQRRMERFGQSAAEEAMQKRVARFGNAATSAEGPGVELKLSEADREAMQRRQSRFGG”: the “soluble on expression in E. coli” value was “soluble”.

Consider “MTTCGEFLVKQLEAWGVETVFGIPGVHTVELYRGLPGSRIRHVTPRHEQGAGFMADGYARVTGKPGVCFIITGPGMTNILTAMAQAYADSIPMLVISSVNERARLAHGNGYLHELPNQRNLVGNVCAFSHTLMSAEELPAVLARAFAVFDSERPRPVHIELPLDVITAPAEHLALRPRTVTSRPAPALAPLREAAARLRNAKKPLLLLGGGCVEAAAEARALAAALDAPTALTINAKGLLPADHPLLLGSNQSCVPVRELATEADVVLAIGTELGETDYDVVFDGGFALDGELIRIDIDPQQLMRNYTPSLAIHSDARLAMRVLLAELPGGEASPDSPGARRAAAVRQRLAEDFAGWSHYRQLFAAILAEWPDARFVGDSTQTVYSGNHLVDLDEPRRWFNASTGYGTLGYGLPAAIGAKLGEPGRPVVSLMGDGGLQFTLPELASAVEAKVGIVVLLWNNHGYGEIKRYMERREITPLGVDIYTPDFLAIARGFGCAAERARDLEHLRELLRGAPADRPLIVEVLQAAPFHP”, for which the “soluble on expression in E. coli” value is listed as “not soluble”.

With “MSLTVVQLTDIHFQWPYPYVTKKKLASIVEKVNEINPDFIFLTGDFISRYRTYNISKYNTETIAFYLGQLRAKRGIYAIQGNNDRCAGDMLLKAFKENGVRMLMNEGIIDDDISITGILSSKNIDICNTWLNQTKIPDAPLKILLSHQPDTALVTYPFFDLQFSGHTHGGQCIAPFGIGPILHPKMGHKFIVGVYKIGNMILHVSTGIGISPLPKPLVRFNNIAEVSVIRVVPEEGHHHHHH”, the “soluble on expression in E. coli” value is reported as “not soluble”.

Consider “MQNGAMKAWLDSSYLAGANQSYIEQLYEDFLTDPGSVDDSWRSIFQQLPTTGVKPDQLHSQTREYFRRLAKDSTRYNSSINDPDIDAKQVKVLQLINAFRFRGHQHANLDPLGLWKQESVPDLDPSYHNLTEADFQNTFNVGSFAIGKETMKLADLYAALKQTYCGSVGAEYMHITNTEEKRWIQQRIESVVGKPTFSDAEKRRFLSELTAAEGLERYLGAKFPGAKRFSLEGGDSLVTMLKEMIRHAGKNGTREVVLGMAHRGRLNVLINVLGKKPEDLFDEFAGKHKEHLGTGDVKYHQGFSSDVETEGGLVHLALAFNPSHLEIVSPVVIGSVRARRDRLDEARSNMVLPITIHGDAAITGQGVVQETLNMSQARGYEVGGTVRIVINNQIGFTTSNPLDARSTQYCTDIAKMVQAPIFHVNADDPEAVAFVTRLALDFRNTFKRDVMIDLVCYRRHGHNEADEPSATQPVMYQKIKKHPTPRKIYADKLIEQNIASLEDATEMVNLYRDALDHGDCVVEEWRPMNLQSFTWSPYLNHEWDEAYPSKVEMKRLQELARRISSAPEAIEMQSRVAKIYSDRALMASGEKPFDWGGAETLAYATLVDEGIPIRLSGEDAGRGTFFHRHAVIHNQKNGSVYVPLSNIHSGQGDFQVWDSVLSEEAVLAFEYGYATAEPRTLTIWEAQFGDFANGAQVVIDQFISSGEQKWGRMCGLVMLLPHGYEGQGPEHSSARLERYLQLCAEQNMQVCIPSTPAQVYHMIRRQALRGMRRPLIVMSPKSLLRHPLATSSLDELANGSFLPAIGEIDELDPKGIKRVVMCSGKVYYDLLEQRRKNGQTDVAIVRIEQLYPFPHQAVQSVLEQYAHVHDFVWCQEEPLNQGAWYCSQHNFREVIPFGASLRYAGRPASASPAVGYLSVHQKQQQALVNDALNVE”, for which the “soluble on expression in E. coli” value is “not soluble”.

On to “MASEVQAERADVVIVGAGHGGAQAAIALRQNGFEGRVLVIGREPEIPYERPPLSKEYLAREKTFERICIRPAQFWEDKAVEMKLGAEVVSLDPAAHTVKLGDGSAIEYGKLIWATGGDPRRLSCVGADLAGVHAVRTKEDADRLMAELDAGAKNAVVIGGGYIGLEAAAVLTKFGVNVTLLEALPRVLARVAGEALSEFYQAEHRAHGVDLRTGAAMDCIEGDGTKVTGVRMQDGSVIPADIVIVGIGIVPCVGALISAGASGGNGVDVDEFCRTSLTDVYAIGDCAAHANDFADGAVIRLESVQNANDMATAAAKDICGAPVPYKATPWFWSNQYDLKLQTVGLSTGHDNAVLRGDPATRSFSVVYLKGGKVVALDCVNMVKDYVQGKKLVEARAQIAPEQLADAGVPLKEMLA”, for which the “soluble on expression in E. coli” value is reported as “soluble”.

Take “MIIRIKHYGEVKIEDSKNLLLNLIENRIGIDNICNGKGTCGKCKVRFRQGVPEATSADLRYLSVEELEEGVRLACQVKPQKGMEIDVTLSNSFDRKNTVLEHHHHHH”: the “soluble on expression in E. coli” value is recorded as “not soluble”.

“MNLDYLKETYHLTKTESQILYYLDQQSTNAADLSIREVAKHCFSSPSSIIRLAKKLNLSGYNELIYKLKEAHFSQPIPFETAPSFETTNEFCRLLAKHKSHLFVILGHDFSRHLAAYISEVFNFHGIPSITTAYTHSINSQNNQNFLFIILSHSGEEKYLKETALLAKEKKHPIISFVGAKNSTLGRLADLVFSTDSYSPFSTSVAQPQMFFGQTLITFEALICAYLNHEDSIPISHKNK”: the “soluble on expression in E. coli” value is reported as “not soluble”.

Consider “MKKTIYKCVLPLLICILLTGCWDRTEINDIAFVVSSAIDKKKDQYRVAMQIPLVGQLGGQTGGGGGTAGSKTWYVDSASGTTIREANNKLQTSLSRTINTSHRRTVIIGEDMARDGVAPVFDILTRNPQNRLTALILVSRGEARDILNTDVQLEQFPAEMIRELAIIATSRPVFLSRFMSDLVEIGSDPYAPVISASKTKPGGKGKSNLKIDGLAIFKKDRLMDIFKDEHMTAALMLLNQARQPEFIVDLPNQMGQASIQLQKSNASFHAAEKNGKLSMTIEIRAKGIIMENQSTYETRENDQYYIIQKALNRTIKKDVISTVHRLQKLKADPAGFQDRTIRSTATTKNLLKKEWEEVYKDMEVHVVPIVTIEQGGVLYKTISH”, for which the “soluble on expression in E. coli” value is listed as “not soluble”.

In the case of “GPGSMRCVRSAAVLVKFGRSFDSTTRFGKELGFSHKMRDIPVLTGNPRPVAREEEWSCRYKLTDRMEDVVMDILKKEGWCEAEVQREMSEIFERKTQGCRSSLNTWTTVEEFQRTPWYRRYKPTDTCVAKYISYEVVKLLEEALIPPSLRGDPYAHLRKRHMEDNWMNDRFSEEAAKYIQREDLNKHTKGLPQYGQITRRKFLEFDRQFKESYGGKQHVNEAYSAWLQSIGKG”, the “soluble on expression in E. coli” value was “not soluble”.

As to “MGSDKIHHHHHHMPAYKVLQKGKTGDLLNVKHLYIKDIQSGEKVQDSFLVTEKNVAYSQKGAPYLNLRLKDKTGQVDGKIWDNALEWDKRFRKGDVVQVNARAVSFRNSLQLSILSLNTLDDSEVILNDYVPTTRMNVEVMFSELQSIIDRIDTPPLKKLLKSFFDDREIAERFKRAPAAKGFHHIYLGGLLEHTHSVTRLLSQIASHYPGVNRDLLLTGGILHDIGKINEFSYDRLVEYSDEGRLIGHIIIGVEMIDEKITAIPDFPAYLAMELRHLILSHHGILEYGSPKRPKTLEALMVHYVDDLDAKVNAFQEYLNDFRDEDTGWTPFHRFLERYLYRGRVQEITAEEPISPKEF”, the “soluble on expression in E. coli” value was “not soluble”.

In the case of “GSPGISGGGGGILMDVNVGLSRLQSQAGAPVGTKGSNTRLAAKQRETLQAYDYLCRVDEAKKWIEECLGTDLGPTSTFEQSLRNGVVLALLVQKFQPDKLIKIFYSNELQFRHSDNINKFLDFIHGIGLPEIFHFELTDIYEGKNLPKVIYCIHALSYFLSMQDLAPPLIKSDENLSFTDEDVSIIVRRLRQSNVILPNFKAL”, the “soluble on expression in E. coli” value is on record as “soluble”.

For the sequence “MGSDKIHHHHHHMYWVSEDNVAGKPGKVLYVILPTIGCYRYRIGKPCYMCSYPAQAPRKTSQERIFGYFLEAIGKIKGKEGRFGIRIFTSGSFFDSSEVRRGTRIKIFQEIAKLDNVFEVVVETRSEIIREEWVRELVEIIEGKWFEVALGLETANDDIADISINKGSTFRDFVRASEIIHKAGAKVKTYLLFKPIFLSEGDAIEEMKRSIELAEPYTDTFSINMTNIQKGTLYEKIWERGEYRTPWLWSVVEVLKWAKRKFPGKRFLSDPVGAGSVRGPHNCGDSRDKPVERAIRKFSTTQDLRYLEVSGDCIEEWKYIVSQGLLDWQLIKSQVSPFSTE”, the “soluble on expression in E. coli” value is “not soluble”.

With “MAHHHHHHMTGLIAPHAGMSYSGRTAAEAFAVFREYLYAKGSKGSELERIFILGPSHTRGFEGCELSAASAYETPFGPLRVDTAVVDRVITDLRKAGVGAATASRRTDEAEHSIEMETPYLSHILHYPPTTTGAPVQPAAGRVAIVPIIVGWTNRQDEKAICDVLKPYMDDARNFFICSSDFCHWGERFSYTYHYKRSEYPNIGDSIIAMDHAAMELLEKRDLERWYAYLQMTKNTICGRAPISIGMQRWASKGNKARVKFVHYSQSNKCKDADDSSVSYAAAIIME”, the “soluble on expression in E. coli” value was “soluble”.

As for “MKGILGFEYGIVQAPLGPDISGPELVAAVANAGGIGLLRCPDWECPDYLRELIRKTKTLTEKPFGIGVVLAFPHDLNIKTILEEKVAVLQLYWGDCSQELVDDAHFAGVKVIPQVGNVEEARKAVAVGVDAIIVQGREAGGHVIGKDGLFSLLPRVVDLVGERDIPVIAAGGIVDGRGYVAALSLGAQGVCLGTRFVATHESYAHPIYKRKLIEYEKTEYTDVFGRARWPGAPQRVLETPFFDDWRSLPAHENEVNQPIIGRSTIHGVEKEIRRFSGTVPNMTTTGDLESMAMYAGQSVGLIKEILPAGEVVKSLVEEAQALILQKFNNATTT”, the “soluble on expression in E. coli” value is listed as “not soluble”.
